From patent US20220298218A1 (ANTAG THERAPEUTICS, published 2022)
Read-outs that look alike come from different tables or passages of the source. *1 amine or outer side, *2 acyl side, *3 side chain or, on linkers, in order; H or OH if unused. Where no end group is shown, it is not given here. Side-chain parts run from the residue outwards. The star is where a group is joined. C18 diacid = O=C(O)CCCCCCCCCCCCCCCCC(=O)*; C16 diacid = O=C(O)CCCCCCCCCCCCCCC(=O)*; γGlu = O=C(O)[C@H](CCC(=O)[*:2])N[*:1]; AEEA = NCCOCCOCC(=O)O

Experiments:
human GIP receptor [1] = target: T1, human GIP receptor (human, UniProt P48546 22-466); test: cell-based or functional assay
T1 sequence (looked up): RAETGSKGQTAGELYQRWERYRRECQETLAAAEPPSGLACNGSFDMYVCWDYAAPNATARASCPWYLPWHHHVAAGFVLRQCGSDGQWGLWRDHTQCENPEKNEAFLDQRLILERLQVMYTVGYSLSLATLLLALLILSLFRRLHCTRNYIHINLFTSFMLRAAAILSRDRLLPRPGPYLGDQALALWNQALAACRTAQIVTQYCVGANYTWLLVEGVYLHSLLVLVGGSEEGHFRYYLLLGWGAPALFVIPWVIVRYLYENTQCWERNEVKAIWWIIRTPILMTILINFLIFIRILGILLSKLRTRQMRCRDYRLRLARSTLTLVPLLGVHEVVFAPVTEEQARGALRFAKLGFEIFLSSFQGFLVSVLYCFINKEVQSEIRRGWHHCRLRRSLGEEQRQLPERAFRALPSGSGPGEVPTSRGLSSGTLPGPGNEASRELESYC

human GIP receptor [2] = target: T1, human GIP receptor; test: cell-based or functional assay; remark: listed apart in the source

Binder | cAMP antagonism (human GIP receptor [1]) [nM] | cAMP antagonism % inhib (human GIP receptor [1]) [%] | cAMP antagonism log (human GIP receptor [1]) [log M] | cAMP agonism % Emax (human GIP receptor [2]) [%] | cAMP antagonism (human GIP receptor [2]) [nM] | cAMP antagonism % inhib (human GIP receptor [2]) [%] | cAMP antagonism pIC50 (human GIP receptor [2]) | cAMP agonism Emax (human GIP receptor [1])
SGTFISDYSIAMDRIK([AEEA-AEEA-AEEA-γGlu-C16 diacid])QQDFVNWLLAQRGPSSGAPPPS-OH (N-terminus assumed; SMILES CC[C@H](C)[C@H](NC(=O)[C@H](CO)NC(=O)[C@H](Cc1ccc(O)cc1)NC(=O)[C@H](CC(=O)O)NC(=O)[C@H](CO)NC(=O)[C@@H](NC(=O)[C@H](Cc1ccccc1)NC(=O)[C@@H](NC(=O)CNC(=O)[C@@H](N)CO)[C@@H](C)O)[C@@H](C)CC)C(=O)N[C@@H](C)C(=O)N[C@@H](CCSC)C(=O)N[C@@H](CC(=O)O)C(=O)N[C@@H](CCCNC(=N)N)C(=O)N[C@H](C(=O)N[C@@H](CCCCNC(=O)COCCOCCNC(=O)COCCOCCNC(=O)COCCOCCNC(=O)CC[C@H](NC(=O)CCCCCCCCCCCCCCC(=O)O)C(=O)O)C(=O)N[C@@H](CCC(N)=O)C(=O)N[C@@H](CCC(N)=O)C(=O)N[C@@H](CC(=O)O)C(=O)N[C@@H](Cc1ccccc1)C(=O)N[C@H](C(=O)N[C@@H](CC(N)=O)C(=O)N[C@@H](Cc1c[nH]c2ccccc12)C(=O)N[C@@H](CC(C)C)C(=O)N[C@@H](CC(C)C)C(=O)N[C@@H](C)C(=O)N[C@@H](CCC(N)=O)C(=O)N[C@@H](CCCNC(=N)N)C(=O)NCC(=O)N1CCC[C@H]1C(=O)N[C@@H](CO)C(=O)N[C@@H](CO)C(=O)NCC(=O)N[C@@H](C)C(=O)N1CCC[C@H]1C(=O)N1CCC[C@H]1C(=O)N1CCC[C@H]1C(=O)N[C@@H](CO)C(=O)O)C(C)C)[C@@H](C)CC) [AT440] | 103 | 100 | -7 | – | – | – | – | –
EGTFISDYSIAMDKIK(C16 diacid)QQDFVNWLLAQKGPSSG-OH (N-terminus assumed; SMILES CC[C@H](C)[C@H](NC(=O)[C@H](CO)NC(=O)[C@H](Cc1ccc(O)cc1)NC(=O)[C@H](CC(=O)O)NC(=O)[C@H](CO)NC(=O)[C@@H](NC(=O)[C@H](Cc1ccccc1)NC(=O)[C@@H](NC(=O)CNC(=O)[C@@H](N)CCC(=O)O)[C@@H](C)O)[C@@H](C)CC)C(=O)N[C@@H](C)C(=O)N[C@@H](CCSC)C(=O)N[C@@H](CC(=O)O)C(=O)N[C@@H](CCCCN)C(=O)N[C@H](C(=O)N[C@@H](CCCCNC(=O)CCCCCCCCCCCCCCC(=O)O)C(=O)N[C@@H](CCC(N)=O)C(=O)N[C@@H](CCC(N)=O)C(=O)N[C@@H](CC(=O)O)C(=O)N[C@@H](Cc1ccccc1)C(=O)N[C@H](C(=O)N[C@@H](CC(N)=O)C(=O)N[C@@H](Cc1c[nH]c2ccccc12)C(=O)N[C@@H](CC(C)C)C(=O)N[C@@H](CC(C)C)C(=O)N[C@@H](C)C(=O)N[C@@H](CCC(N)=O)C(=O)N[C@@H](CCCCN)C(=O)NCC(=O)N1CCC[C@H]1C(=O)N[C@@H](CO)C(=O)N[C@@H](CO)C(=O)NCC(=O)O)C(C)C)[C@@H](C)CC) [AT471] | 11 | 100 | -7.9 | 0 | 6.81 | 87 | 8.2 | –
EGTFISDYSIAMDKIK(C16 diacid)QQDFVNWLLAQKGPS-OH (N-terminus assumed; SMILES CC[C@H](C)[C@H](NC(=O)[C@H](CO)NC(=O)[C@H](Cc1ccc(O)cc1)NC(=O)[C@H](CC(=O)O)NC(=O)[C@H](CO)NC(=O)[C@@H](NC(=O)[C@H](Cc1ccccc1)NC(=O)[C@@H](NC(=O)CNC(=O)[C@@H](N)CCC(=O)O)[C@@H](C)O)[C@@H](C)CC)C(=O)N[C@@H](C)C(=O)N[C@@H](CCSC)C(=O)N[C@@H](CC(=O)O)C(=O)N[C@@H](CCCCN)C(=O)N[C@H](C(=O)N[C@@H](CCCCNC(=O)CCCCCCCCCCCCCCC(=O)O)C(=O)N[C@@H](CCC(N)=O)C(=O)N[C@@H](CCC(N)=O)C(=O)N[C@@H](CC(=O)O)C(=O)N[C@@H](Cc1ccccc1)C(=O)N[C@H](C(=O)N[C@@H](CC(N)=O)C(=O)N[C@@H](Cc1c[nH]c2ccccc12)C(=O)N[C@@H](CC(C)C)C(=O)N[C@@H](CC(C)C)C(=O)N[C@@H](C)C(=O)N[C@@H](CCC(N)=O)C(=O)N[C@@H](CCCCN)C(=O)NCC(=O)N1CCC[C@H]1C(=O)N[C@@H](CO)C(=O)O)C(C)C)[C@@H](C)CC) [AT473] | 26 | 100 | -7.6 | 0 | 2.93 | 88 | 8.5 | –
EGTFISDYSIAMDKIK(C16 diacid)QQDFVNWLLAQKGPSS-OH (N-terminus assumed; SMILES CC[C@H](C)[C@H](NC(=O)[C@H](CO)NC(=O)[C@H](Cc1ccc(O)cc1)NC(=O)[C@H](CC(=O)O)NC(=O)[C@H](CO)NC(=O)[C@@H](NC(=O)[C@H](Cc1ccccc1)NC(=O)[C@@H](NC(=O)CNC(=O)[C@@H](N)CCC(=O)O)[C@@H](C)O)[C@@H](C)CC)C(=O)N[C@@H](C)C(=O)N[C@@H](CCSC)C(=O)N[C@@H](CC(=O)O)C(=O)N[C@@H](CCCCN)C(=O)N[C@H](C(=O)N[C@@H](CCCCNC(=O)CCCCCCCCCCCCCCC(=O)O)C(=O)N[C@@H](CCC(N)=O)C(=O)N[C@@H](CCC(N)=O)C(=O)N[C@@H](CC(=O)O)C(=O)N[C@@H](Cc1ccccc1)C(=O)N[C@H](C(=O)N[C@@H](CC(N)=O)C(=O)N[C@@H](Cc1c[nH]c2ccccc12)C(=O)N[C@@H](CC(C)C)C(=O)N[C@@H](CC(C)C)C(=O)N[C@@H](C)C(=O)N[C@@H](CCC(N)=O)C(=O)N[C@@H](CCCCN)C(=O)NCC(=O)N1CCC[C@H]1C(=O)N[C@@H](CO)C(=O)N[C@@H](CO)C(=O)O)C(C)C)[C@@H](C)CC) [AT472] | 15 | 100 | -7.8 | 0 | 7.94 | 90 | 8.1 | –
SGTFISDYSIAMDRIK([AEEA-AEEA-AEEA-γGlu-C18 diacid])QQDFVNWLLAQRGPSSGAPPPS-OH (N-terminus assumed; SMILES CC[C@H](C)[C@H](NC(=O)[C@H](CO)NC(=O)[C@H](Cc1ccc(O)cc1)NC(=O)[C@H](CC(=O)O)NC(=O)[C@H](CO)NC(=O)[C@@H](NC(=O)[C@H](Cc1ccccc1)NC(=O)[C@@H](NC(=O)CNC(=O)[C@@H](N)CO)[C@@H](C)O)[C@@H](C)CC)C(=O)N[C@@H](C)C(=O)N[C@@H](CCSC)C(=O)N[C@@H](CC(=O)O)C(=O)N[C@@H](CCCNC(=N)N)C(=O)N[C@H](C(=O)N[C@@H](CCCCNC(=O)COCCOCCNC(=O)COCCOCCNC(=O)COCCOCCNC(=O)CC[C@H](NC(=O)CCCCCCCCCCCCCCCCC(=O)O)C(=O)O)C(=O)N[C@@H](CCC(N)=O)C(=O)N[C@@H](CCC(N)=O)C(=O)N[C@@H](CC(=O)O)C(=O)N[C@@H](Cc1ccccc1)C(=O)N[C@H](C(=O)N[C@@H](CC(N)=O)C(=O)N[C@@H](Cc1c[nH]c2ccccc12)C(=O)N[C@@H](CC(C)C)C(=O)N[C@@H](CC(C)C)C(=O)N[C@@H](C)C(=O)N[C@@H](CCC(N)=O)C(=O)N[C@@H](CCCNC(=N)N)C(=O)NCC(=O)N1CCC[C@H]1C(=O)N[C@@H](CO)C(=O)N[C@@H](CO)C(=O)NCC(=O)N[C@@H](C)C(=O)N1CCC[C@H]1C(=O)N1CCC[C@H]1C(=O)N1CCC[C@H]1C(=O)N[C@@H](CO)C(=O)O)C(C)C)[C@@H](C)CC) [AT442] | 26 | 77 | -7.6 | – | – | – | – | –
EGTFISDYSIAMDKIK([AEEA-AEEA-γGlu-C16 diacid])QQDFVNWLLAQKGKKNDW-OH (N-terminus assumed; SMILES CC[C@H](C)[C@H](NC(=O)[C@H](CO)NC(=O)[C@H](Cc1ccc(O)cc1)NC(=O)[C@H](CC(=O)O)NC(=O)[C@H](CO)NC(=O)[C@@H](NC(=O)[C@H](Cc1ccccc1)NC(=O)[C@@H](NC(=O)CNC(=O)[C@@H](N)CCC(=O)O)[C@@H](C)O)[C@@H](C)CC)C(=O)N[C@@H](C)C(=O)N[C@@H](CCSC)C(=O)N[C@@H](CC(=O)O)C(=O)N[C@@H](CCCCN)C(=O)N[C@H](C(=O)N[C@@H](CCCCNC(=O)COCCOCCNC(=O)COCCOCCNC(=O)CC[C@H](NC(=O)CCCCCCCCCCCCCCC(=O)O)C(=O)O)C(=O)N[C@@H](CCC(N)=O)C(=O)N[C@@H](CCC(N)=O)C(=O)N[C@@H](CC(=O)O)C(=O)N[C@@H](Cc1ccccc1)C(=O)N[C@H](C(=O)N[C@@H](CC(N)=O)C(=O)N[C@@H](Cc1c[nH]c2ccccc12)C(=O)N[C@@H](CC(C)C)C(=O)N[C@@H](CC(C)C)C(=O)N[C@@H](C)C(=O)N[C@@H](CCC(N)=O)C(=O)N[C@@H](CCCCN)C(=O)NCC(=O)N[C@@H](CCCCN)C(=O)N[C@@H](CCCCN)C(=O)N[C@@H](CC(N)=O)C(=O)N[C@@H](CC(=O)O)C(=O)N[C@@H](Cc1c[nH]c2ccccc12)C(=O)O)C(C)C)[C@@H](C)CC) [AT415] | 55 | 87 | -7.3 | 0 | 13.6 | 87 | 7.9 | 4.6
